The record followed here is article PMC5716667.

This assay addresses COPI coatomer (heptameric complex) (Chlamydomonas reinhardtii (endogenous in C. reinhardtii cells)). The experiment in a line: cryo-EM structure; in situ cryo-electron tomography of cryo-FIB milled vitrified C. reinhardtii cells, reference-free subtomogram averaging of the COPI triad with three-fold symmetry, 20 Å; PDB 5A1U fitted as a rigid body; separate averages of buds, vesicles and Golgi regions.

What is called stoichiometry N is the number of molecules, sites or subunits per partner or assembly. For the substance COPI coatomer (heptameric complex), the stoichiometry N was determined as 3.
